Here are results for 6 molecules from PMC3322178 (Biochemistry, 2009).

The target of assay [1] is ASF/SF2 (Homo sapiens) (UniProt Q07955). The following applies: cited from earlier work.
The target of assay [2] is T1, His-SRPK1(FL), full length SR protein kinase 1 (UniProt Q96SB4 1-655). As to the kind of experiment: pull-down.
In assay [3] the target is T1, His-SRPK1(FL), full length SR protein …. As to the kind of experiment: pull-down. The source holds these as a separate data set.

Where two headings read alike, the source gives them in different places.

Turning to SRPK1 (from UniProt Q96SB4), in assay [1], the Kd was 50 nM.

B1: GST-ASF(RRM2)-Q135A (domain or fragment, human, UniProt Q07955 105-196, looked up)
chain: GGAPRGRYGPPSRRSENRVVVSGLPPSGSWADLKDHMREAGDVCYADVYRDGTGVVEFVRKEDMTYAVRKLDNTKFRSHEGETAYIRVKVDG
In the case of B1, the binding result in assay [2] is “binds”.

B2: GST-ASFΔβ4ΔRS (residues 1-179) (domain or fragment, human, UniProt Q07955 1-179, looked up)
chain: MSGGGVIRGPAGNNDCRIYVGNLPPDIRTKDIEDVFYKYGAIRDIDLKNRRGGPPFAFVEFEDPRDAEDAVYGRDGYDYDGYRLRVEFPRSGRGTGRGGGGGGGGGAPRGRYGPPSRRSENRVVVSGLPPSGSWQDLKDHMREAGDVCYADVYRDGTGVVEFVRKEDMTYAVRKLDNTK
Take B2: in assay [2], the binding result is “binds”.

B3: GST-ASF(RRM2)-W134A (domain or fragment, human, UniProt Q07955 105-196, looked up)
chain: GGAPRGRYGPPSRRSENRVVVSGLPPSGSAQDLKDHMREAGDVCYADVYRDGTGVVEFVRKEDMTYAVRKLDNTKFRSHEGETAYIRVKVDG
On to B3, for which the binding result in assay [2] was “binds”.

B4: GST-ASF(RS), ASF/SF2 RS domain residues 183-248 (domain or fragment, human, UniProt Q07955 183-248, looked up)
chain: HEGETAYIRVKVDGPRSPSYGRSRSRSRSRSRSRSRSNSRSRSYSPRRSRGSPRYSPRHSRSRSRT
B4: the binding result in assay [3] is “binds”.

B5: GST-ASF(RRM2)-R154A (domain or fragment, human, UniProt Q07955 105-196, looked up)
chain: GGAPRGRYGPPSRRSENRVVVSGLPPSGSWQDLKDHMREAGDVCYADVYADGTGVVEFVRKEDMTYAVRKLDNTKFRSHEGETAYIRVKVDG
On to B5, for which the binding result in assay [3] is “binds”.

The Kd is the concentration at which binding is half-saturated.
